In publication PMC12310653:

Molecular target: cathepsin L
Assay: enzyme inhibition kinetics (Morrison equation for tight-binding inhibition); active cathepsin L (6 nM) incubated with varying concentrations of Amblyostatin-1 in 50 mM sodium acetate pH 5.5 at 37°C for 10 min; substrate Z-Phe-Arg-AMC; fluorescence read at 30°C over 15 min; residual Vmax fitted

“recombinant Amblyostatin-1 (natural protein)” was tested, and the Ki was 0.697 nM.
